According to publication PMC11540549 (Biochemistry, 2019):
No end group written: not given here.

T1: TCF19 (DDCAC) PHD (UniProt Q9Y242 296-342)
T1 sequence: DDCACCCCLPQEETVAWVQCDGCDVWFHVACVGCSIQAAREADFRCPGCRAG


Tests used:
TCF19 PHD R330Y = TCF19 PHD R330Y (UniProt Q9Y242); assay: NMR titration
TCF19 PHD W307Y = TCF19 PHD W307Y (UniProt Q9Y242); assay: NMR titration
TCF19 PHD C324A = TCF19 PHD C324A (UniProt Q9Y242); assay: NMR titration
TCF19 (DDCAC) PHD = biological target: T1, TCF19 (DDCAC) PHD; assay: other fluorescence titration

Row | Kd (TCF19 PHD R330Y) [µM] | Kd (TCF19 PHD W307Y) [µM] | Kd (TCF19 PHD C324A) [µM] | Kd (TCF19 (DDCAC) PHD) [µM] | Molecule
1 | 400 | 2000 | 440 | – | H3K4me3 peptide (residues 1-12) (from UniProt P68431 2-13)
2 | – | – | – | 4.7 | ARTK(Me3)QTARKSTG (peptide, UniProt P68431 2-13, looked up) [H3K4me3 peptide (residues 1-12)]
